Measured values published in patent US20220281965A1 (AstraZeneca / MedImmune, published 2022).

T1: mature recombinant cynomolgus GDF-15 with an N-terminal Flag and His tag, biotinylated (cynomolgus, UniProt G7PWZ3 197-308, chemically biotinylated with EZ link Sulfo-NHS-LC-Biotin, sites not stated)
T1 construct: not shown: N-terminal Flag and His tags
T1 sequence: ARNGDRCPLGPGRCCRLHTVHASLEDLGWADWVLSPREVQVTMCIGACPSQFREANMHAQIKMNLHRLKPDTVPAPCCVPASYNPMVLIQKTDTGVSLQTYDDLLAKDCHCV

T2: mature recombinant human GDF-15 H202D variant with an N-terminal Flag and His tag, biotinylated (human, UniProt Q99988 197-308, chemically biotinylated with EZ link Sulfo-NHS-LC-Biotin, sites not stated)
T2 construct: also called Human H202D; not shown: N-terminal Flag and His tags
T2 chain: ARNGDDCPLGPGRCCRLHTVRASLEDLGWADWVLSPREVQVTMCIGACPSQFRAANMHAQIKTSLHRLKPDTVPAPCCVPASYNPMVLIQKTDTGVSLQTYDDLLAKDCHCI

T3: mature recombinant mouse GDF-15 with Flag and His tags (mouse, UniProt Q9Z0J7 189-303)
T3 construct: also called Flag tagged mouse GDF-15; not shown: FLAG and poly-His tags immediately C-terminal to the furin cleavage site (N-terminal on the mature protein)
T3 sequence: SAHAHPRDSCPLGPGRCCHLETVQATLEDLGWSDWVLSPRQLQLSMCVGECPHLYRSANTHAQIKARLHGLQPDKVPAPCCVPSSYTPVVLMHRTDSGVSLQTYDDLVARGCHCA

T4: mature recombinant human GDF-15 with an N-terminal Flag and His tag, biotinylated (human, UniProt Q99988 197-308, chemically biotinylated with EZ link Sulfo-NHS-LC-Biotin, sites not stated)
T4 construct: not shown: N-terminal Flag and His tags
T4 sequence: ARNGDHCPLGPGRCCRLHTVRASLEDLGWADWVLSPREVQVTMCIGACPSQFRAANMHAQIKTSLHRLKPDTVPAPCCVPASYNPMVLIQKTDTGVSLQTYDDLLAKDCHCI


Experiments:
Test in all cases: SPR Biacore 8K, 25 C, biotinylated GDF-15 on streptavidin C1 chip, Fab as analyte
[1] = target: T1, mature recombinant cynomolgus GDF-15 …
Procedure: (§1) The experiments were carried out using mature recombinant human GDF-15, human GDF-15 H202D variant, mouse GDF-15, and cynomolgus GDF-15 with an N-terminal Flag and His tag. All species were chemically biotinylated using EZ link Sulfo-NHS-LC-Biotin (Thermo).
(§2) Streptavidin was covalently immobilized to a C1 chip surface using standard amine coupling techniques at a concentration of 4 μg/ml in 10 mM Sodium acetate pH 4.5. Recombinant biotinylated GDF-15 species were titrated onto the streptavidin chip surface in HBS-EP+ buffer to enable Fab binding.
(§3) Multiple buffer-only injections were made under the same conditions to allow for double reference subtraction of the final sensorgram sets, which were analyzed using Biacore 8K Evaluation Software. The chip surface was fully regenerated with pulses of 50 mM NaOH.

[2] = target: T2, mature recombinant human GDF-15 H202D …
Procedure: as §1, §2, §3

[3] = target: T3, mature recombinant mouse GDF-15 with …
Procedure: as §1, §2, §3

[4] = target: T4, mature recombinant human GDF-15 with an …
Procedure: as §1, §2, §3

| Binder | Kd [1] [nM] | koff [1] [s⁻¹] | kon [1] [M⁻¹ s⁻¹] | Kd [2] [nM] | koff [2] [s⁻¹] | kon [2] [M⁻¹ s⁻¹] | Kd [3] [nM] | koff [3] [s⁻¹] | kon [3] [M⁻¹ s⁻¹] | Kd [4] [nM] | koff [4] [s⁻¹] | kon [4] [M⁻¹ s⁻¹] |
| --- | --- | --- | --- | --- | --- | --- | --- | --- | --- | --- | --- | --- |
| AB1170242 Fab (Fab, V domains shown, Fab of the humanized antibody, expressed as in Spooner et al. 2015) VH: QVQLQESGPGLLKPSQTLSLTCTVSGFSLSTYGMGVGWIRQPAGKGLEWLANIWWNDDKYYNSALKSRLTISKDTSKNQVSLKLSSVTAADTAVYYCAQEVYGWFAYWGQGTLVTVSS VL: DIQMTQSPSTLSASVGDRVTITCKASQNVGTNVAWYQQKPGQPPKALIYSASYRYSGVPDRFSGSGSGTDFTLTISSLQAEDVAVYYCQQYNSYPLTFGQGTKLEIK | 2.88 | 0.0245 | 8.5e+06 | 3.13 | 0.0233 | 7.47e+06 | 908 | 0.826 | 903000 | 3.22 | 0.0247 | 7.68e+06 |
| AB1170244 Fab (Fab, V domains shown, Fab of the humanized antibody, expressed as in Spooner et al. 2015) VH: EVQLVESGGGLVKPGGSLRLSCAASGFTFSSYAMSWVRQAPGKGLEWVAYISSGGDNIYYADTVKGRFTISRDNSKNTLYLQMNSLKTEDTAVYYCTRALVENAYFDYWGQGTTVTVSS VL: DSVLTQSPDSLAVSLGERATINCRASKSVSTSTYSYMHWYQQKPGQPPKLLIKYASYLESGVPDRFSGSGSGTDFTLKISRVEAEDVGVYYCQHSREFPWTFGGGTKVEIK | 5.47 | 0.0145 | 2.64e+06 | 2.39 | 0.00595 | 2.49e+06 | 916 | 0.54 | 591000 | 2.35 | 0.00558 | 2.39e+06 |
| AB1170245 Fab (Fab, V domains shown, Fab of the humanized antibody, expressed as in Spooner et al. 2015) VH: EVQLVESGGGLVKPGGSLRLSCAASGFTFSSYAMSWVRQAPGKGLEWVAYISSGGDYIYYADTVKGRFTISRDNSKNTLYLQMNSLKTEDTAVYYCTRALVDNAYFDYWGQGTTVTVSS VL: DIVLTQSPDSLAVSLGERATINCRASKSVSTSSYSYMHWYQQKPGQPPKLLIKYASYLEFGVPSRFSGSGSGTDFTLTISSLQPEDVATYYCQHSREFPWTFGGGTKVEIK | 20.9 | 0.0712 | 3.42e+06 | 10.5 | 0.0321 | 3.07e+06 | 2400 | 1.5 | 643000 | 10.2 | 0.0315 | 3.1e+06 |

Second part, the binder after the results:

| Kd [1] [nM] | koff [1] [s⁻¹] | kon [1] [M⁻¹ s⁻¹] | Kd [2] [nM] | koff [2] [s⁻¹] | kon [2] [M⁻¹ s⁻¹] | Kd [3] [nM] | koff [3] [s⁻¹] | kon [3] [M⁻¹ s⁻¹] | Kd [4] [nM] | koff [4] [s⁻¹] | kon [4] [M⁻¹ s⁻¹] | Binder |
| --- | --- | --- | --- | --- | --- | --- | --- | --- | --- | --- | --- | --- |
| 2.8 | 0.0078 | 2.79e+06 | 1.63 | 0.00478 | 2.92e+06 | 0.14 | 0.000244 | 1.75e+06 | 1.64 | 0.00489 | 2.97e+06 | AB1520085 Fab (Fab, V domains shown, Fab of the anti-mouse GDF-15 mouse IgG1, expressed as in Spooner et al. 2015) VH: QVQLQQPGAELVMPGASVKMSCKASGYTFTDYWMHWVKQRPGQGLEWIGVIDTSESYTSYNQKFKGKATLTVDESSSTAYMQLSSLTSEDSAVYFCARGGTTVVLDYWGQGTTLTVSS VL: DIVMTQSQKFMSTSVGDRVSVTCKASQNVGTAVAWYQKKPGQSPKALIYSASTRYTGVPDRFTGSGSGTDFTLTISNVQSEDLAEYFCQQYSSSPWTFGGGTKLELK |
| 3.11 | 0.0129 | 4.15e+06 | 3.04 | 0.0113 | 3.72e+06 | 1140 | 0.928 | 804000 | 3.13 | 0.0114 | 3.63e+06 | AB1170249 Fab (Fab, V domains shown, Fab of the humanized antibody, expressed as in Spooner et al. 2015) VH: QVQLQESGPGLLKPSQTLSLTCTVSGFSLSTYGMGVGWIRQPLGKGLEWLANIWWNDDKYYNSALKSRLTISKDTSKNQVSLKLSSVTAADTAVYYCAQMAYSWFAYWGQGTLVTVSS VL: DIQMTQSPSFLSASVGDRVTITCKASQNMDTNVAWYQQKPGQPPKALIYSASYRYSGVPDRFSGSGSGTDFTLTISSLQAEDVAVYYCQQYNSYPFTFGQGTKLEIK |
